T1: ICOS fusion protein (R&D Biosystems) (human, UniProt Q9Y6W8 21-141)
T1 sequence (looked up): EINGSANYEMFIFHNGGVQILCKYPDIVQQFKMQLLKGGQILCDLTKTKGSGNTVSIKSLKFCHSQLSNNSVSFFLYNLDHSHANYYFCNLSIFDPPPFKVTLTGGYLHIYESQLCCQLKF

T2: CTLA-4 fusion protein (R&D Biosystems) (human, UniProt P16410 37-162)
T2 sequence (looked up): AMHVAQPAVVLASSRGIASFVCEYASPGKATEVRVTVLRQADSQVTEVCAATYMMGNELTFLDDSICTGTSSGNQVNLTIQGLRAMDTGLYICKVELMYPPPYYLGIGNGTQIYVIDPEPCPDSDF


Experiments:
[1] = biological target: T3, purified recombinant human PD-1 fusion protein (human, UniProt Q15116 25-170); assay: Biacore SPR; PD-1 fusion protein on CM5 chip, antibody at 267 nM
T3 construct: extracellular domain; Made in CHO cells; amine-coupled to a CM5 chip for Biacore
Procedure: Anti-PD-1 antibodies were characterized for affinities and binding kinetics by Biacore analysis (Biacore AB, Uppsala, Sweden). Purified recombinant human PD-1 fusion protein was covalently linked to a CM5 chip (carboxy methyl dextran coated chip) via primary amines, using standard amine coupling chemistry and kit provided by Biacore. Binding was measured by flowing the antibodies in HBS EP buffer (provided by Biacore AB) at a concentration of 267 nM at a low rate of 50 μl/min. The antigen-antibody association kinetics was followed for 3 minutes and the dissociation kinetics was followed for 7 minutes. The association and dissociation curves were fit to a 1:1 Langmuir binding model using BIAevaluation software (Biacore AB). To minimize the effects of avidity in the estimation of the binding constants, only the initial segment of data corresponding to association and dissociation phases were used for fitting.

[2] = biological target: T4, CD28 fusion protein (R&D Biosystems) (human, UniProt P10747 19-152); assay: ELISA on CD28 fusion protein, goat anti-human IgG (kappa) HRP
Procedure: (§1) A comparison of the binding of anti-PD-1 antibodies to CD28 family members was performed by standard ELISA using four different CD28 family members to examine the specificity of binding for PD-1.
(§2) Standard ELISA procedures were performed. The anti-PD-1 human monoclonal antibodies were added at a concentration of 20 μg/ml. Goat-anti-human IgG (kappa chain-specific) polyclonal antibody conjugated with horseradish peroxidase (HRP) was used as secondary antibody.

[3] = biological target: T1, ICOS fusion protein (R&D Biosystems); assay: ELISA on ICOS fusion protein, goat anti-human IgG (kappa) HRP
Procedure: as §1, §2

[4] = biological target: T2, CTLA-4 fusion protein (R&D Biosystems); assay: ELISA on CTLA-4 fusion protein, goat anti-human IgG (kappa) HRP
Procedure: as §1, §2

[5] = biological target: T5, human PD-1 expressed at the cell surface (human, UniProt Q15116 25-288); assay: flow cytometry on activated human T cells, FITC-labeled anti-human IgG, MFI
T5 construct: whole, on cells; also called hPD-1; CHO hPD-1 cells
Procedure: (§3) Activated human T-cells, monkey peripheral blood mononuclear cells (PBMC), and CHO cells transfected with PD-1 were each tested for antibody binding. Human T cells and cynomolgous PBMC were activated by […] to induce PD-1 expression on T cells prior to binding with a human anti-PD-1 monoclonal antibody. […] The cells were washed and binding was detected with a FITC-labeled anti-human IgG Ab. Flow cytometric analyses were performed using a FACScan flow cytometry (Becton Dickinson, San Jose, Calif.).

[6] = biological target: T6, cynomolgus monkey cell surface PD-1 (cynomolgus monkey, UniProt B0LAJ3 25-288); assay: flow cytometry on activated cynomolgus monkey PBMC, FITC-labeled anti-human IgG, MFI
T6 construct: also called cynomolgous monkey PD-1
Procedure: as §3

[7] = biological target: T5, human PD-1 expressed at the cell surface; assay: flow cytometry on CHO cells transfected with human PD-1, FITC-labeled anti-human IgG, MFI
Procedure: as §3

[8] = biological target: T5, human PD-1 expressed at the cell surface; assay: flow cytometry blocking assay on CHO/hPD-1 cells: antibody first, then FITC-labeled PD-L1 fusion protein as the blocked ligand, MFI
Procedure: (§4) PD-1 expressing CHO cells were suspended in FACS buffer (PBS with 4% fetal calf serum). […] Flow cytometric analyses were performed using a FACScan flowcytometer (Becton Dickinson, San Jose, Calif.).

[9] = biological target: T1, ICOS fusion protein (R&D Biosystems); assay: standard ELISA on fusion proteins
Procedure: as §1, §2

[10] = biological target: T2, CTLA-4 fusion protein (R&D Biosystems); assay: standard ELISA on fusion proteins
Procedure: as §1, §2

[11] = biological target: T4, CD28 fusion protein (R&D Biosystems); assay: standard ELISA on fusion proteins
Procedure: as §1, §2

[12] = biological target: T5, human PD-1 expressed at the cell surface; assay: flow cytometry blocking assay on CHO/PD-1 cells: antibody first, then FITC-labeled PD-L2 fusion protein as the blocked ligand, MFI
Procedure: as §4

T6 sequence (B0LAJ3 entry or part of it limits assumed): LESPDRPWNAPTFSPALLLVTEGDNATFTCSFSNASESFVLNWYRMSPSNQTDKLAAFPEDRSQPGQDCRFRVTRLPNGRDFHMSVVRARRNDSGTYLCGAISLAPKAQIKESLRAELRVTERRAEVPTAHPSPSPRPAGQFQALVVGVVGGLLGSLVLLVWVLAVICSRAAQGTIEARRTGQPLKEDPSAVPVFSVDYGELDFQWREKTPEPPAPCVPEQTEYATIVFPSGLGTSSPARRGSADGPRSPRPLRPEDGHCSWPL
T4 sequence (P10747 19-152): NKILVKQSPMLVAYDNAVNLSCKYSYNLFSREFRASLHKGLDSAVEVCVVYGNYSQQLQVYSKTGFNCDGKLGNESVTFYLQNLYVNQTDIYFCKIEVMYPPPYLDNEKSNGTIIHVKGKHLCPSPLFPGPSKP
T3 sequence (Q15116 25-170): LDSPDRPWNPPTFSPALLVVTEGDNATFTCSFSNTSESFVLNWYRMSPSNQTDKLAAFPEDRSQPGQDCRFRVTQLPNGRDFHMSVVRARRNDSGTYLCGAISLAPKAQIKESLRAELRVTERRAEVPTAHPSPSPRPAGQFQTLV
T5 sequence (Q15116 25-288): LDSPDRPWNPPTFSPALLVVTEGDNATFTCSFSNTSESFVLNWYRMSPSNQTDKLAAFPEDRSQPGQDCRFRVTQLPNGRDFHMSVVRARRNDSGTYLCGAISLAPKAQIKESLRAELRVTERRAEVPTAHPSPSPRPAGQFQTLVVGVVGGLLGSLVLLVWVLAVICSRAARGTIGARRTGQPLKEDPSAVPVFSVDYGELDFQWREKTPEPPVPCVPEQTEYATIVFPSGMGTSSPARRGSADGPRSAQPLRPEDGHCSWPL

Kd [1] | koff [1] | kon [1] | binding result [2] | binding result [3] | binding result [4] | EC50 (read off the curve) [5] | EC50 (read off the curve) [6] | EC50 (read off the curve) [7] | IC50 (read off the curve) [8] | binding result [9] | binding result [10] | binding result [11] | IC50 (read off the curve) [12] | Binder
– | – | – | – | no binding (tested: 20 µg/ml) | no binding (tested: 20 µg/ml) | – | ~1 nM | – | – | – | – | – | – | anti-PD-1 human monoclonal antibody 5C4 (antibody, V domains shown, Fully human IgG with kappa light chain from a hybridoma; also called 5C4-IgG1; 5C4-IgG4) VH: QVQLVESGGGVVQPGRSLRLDCKASGITFSNSGMHWVRQAPGKGLEWVAVIWYDGSKRYYADSVKGRFTISRDNSKNTLFLQMNSLRAEDTAVYYCATNDDYWGQGTLVTVSS VL: EIVLTQSPATLSLSPGERATLSCRASQSVSSYLAWYQQKPGQAPRLLIYDASNRATGIPARFSGSGSGTDFTLTISSLEPEDFAVYYCQQSSNWPRTFGQGTKVEIK
– | – | – | – | – | – | – | – | – | – | no binding (tested: 20 µg/ml) | no binding (tested: 20 µg/ml) | no binding (tested: 20 µg/ml) | – | anti-PD-1 human monoclonal antibody 7D3 (antibody, V domains shown, Fully human IgG with kappa light chain from a hybridoma) VH: QVQLVESGGGVVQPGRSLRLSCTTSGITFSSYGFHWVRQAPGKGLEWVAVIWYDGSKKYYADSVKGRFTLSRDDSKNTLYLQMNSLRAEDTAVYYCVTGDDYWGQGTLVTVSS VL: EIVLTQSPATLSLSPGERATLSCRASQSVSSYLAWYQQKPGQAPRLLIYDASNRATGIPARFSGSGSGTDFTLTISSLEPEDFAVYYCQQRSNWPLTFGGGTKVEIK
– | – | – | – | – | – | – | – | – | – | no binding (tested: 20 µg/ml) | no binding (tested: 20 µg/ml) | no binding (tested: 20 µg/ml) | – | anti-PD-1 human monoclonal antibody 5F4 (antibody, V domains shown, Fully human IgG with kappa light chain from a hybridoma) VH: QLQLQESGPGLVKPSETLSLTCSVSGGSLSRSSYFWGWIRQPPGKGLEWIASIFYSGETYFNPSLKSRVTISVDTSRNQFSLKLSSVTAADTAVYYCARDYDILTGDEDYWGQGTLVTVSS VL: DIQMTQSPSSLSASVGDRVTITCRASQGISSWLAWYQQKPEKAPKSLIYAASSLQSGVPSRFSGSGSGTDFTLTISSLQPEDFATYYCQQYYSYPRTFGQGTKVEIK

Second part, the binder before the results:

Binder | Kd [1] | koff [1] | kon [1] | binding result [2] | binding result [3] | binding result [4] | EC50 (read off the curve) [5] | EC50 (read off the curve) [6] | EC50 (read off the curve) [7] | IC50 (read off the curve) [8] | binding result [9] | binding result [10] | binding result [11] | IC50 (read off the curve) [12]
anti-PD-1 human monoclonal antibody 17D8 (antibody, V domains shown, Fully human IgG with kappa light chain from a hybridoma (HuMab/KM mice)) VH: QVQLVESGGDVVQPGGSLRLSCAASGVAFSNYGMHWVRQAPGKGLEWVAVIWYDGSNKYYADSVKGRFTISRDNSKNMLYLQMNSLRAEDTAMYYCARNDDYWGQGTLVTVSS VL: EIVLTQSPATLSLSPGERATLSCRASQSVSSYLAWYQQKPGQAPRLIIYDASNRATGIPARFSGSGSGTDFTLTISSLEPEDFAVYYCQQRSNWPLTFGGGTKVEIK | 0.16 nM | 4.5e-05 s⁻¹ | 256000 M⁻¹ s⁻¹ | no binding (tested: 20 µg/ml) | no binding (tested: 20 µg/ml) | no binding (tested: 20 µg/ml) | ~2 nM | ~3 nM | ~10 nM | – | – | – | – | –
anti-PD-1 human monoclonal antibody 4H1 (antibody, V domains shown, Fully human IgG with kappa light chain from a hybridoma) VH: QVYLVESGGGVVQPGRSLRLSCAASGFTFSNYGMHWVRQAPGKGLEWVALIWYDGSNKYYADSVKGRFTISRDNSKNTLYLQMTSLRVEDTAVYYCASNVDHWGQGTLVTVSS VL: EIVLTQSPATLSLSPGERATLSCRASQSVSSYLAWYQQKPGQAPRLLIYDASNRATGIPARFSGSGSGTDFTLTISSLEPEDFAVYYCQQSSNWPRTFGQGTKVEIK | – | – | – | no binding (tested: 20 µg/ml) | no binding (tested: 20 µg/ml) | no binding (tested: 20 µg/ml) | ~0.6 nM | ~0.9 nM | ~3 nM | ~2 nM | – | – | – | –
anti-PD-1 human monoclonal antibody 2D3 (antibody, V domains shown, Fully human IgG with kappa light chain from a hybridoma) VH: QVQLVESGGDVVQPGRSLRLSCAASGLTFTNYGFHWVRQAPGKGLEWVAVIWYDGSKKYYADSVKGRFTISRDNSKNTLYLQMNNLRAEDTAVYYCATGDDYWGQGTLVTVSS VL: EIVLTQSPATLSLSPGERATLSCRASQSVSSYLAWYQQKPGQAPRLLIYDTSNRATGIPARFSGSGSGTDFTLTISSLEPEDFAVYYCQQRSNWPLTFGGGTKVEIK | 1.2 nM | 0.000452 s⁻¹ | 377000 M⁻¹ s⁻¹ | no binding (tested: 20 µg/ml) | no binding (tested: 20 µg/ml) | no binding (tested: 20 µg/ml) | ~0.7 nM | ~1 nM | – | – | – | – | – | –
anti-PD-1 human monoclonal antibody 4A11 (antibody, V domains shown, Fully human IgG with kappa light chain from a hybridoma) VH: QLQLQESGPGLVKPSETLSLTCTVSGGSLSRSSFFWGWIRQPPGKGLEWIGSIYYSGSTYYNPSLKSRVTISVDTSKNQFSLKLSSVTAADTAVYYCVRDYDILTGDEDYWGQGTLVTVSS VL: DIQMTQSPSSLSASVGDRVSITCRASQGISSWLAWYQQKPEKAPKSLIYAASNLRSGVPSRFSGSGSGTDFTLTISSLQPEDFATYYCQQYYSYPRTFGQGTKVEIK | 0.13 nM | 9.9e-06 s⁻¹ | 76000 M⁻¹ s⁻¹ | no binding (tested: 20 µg/ml) | no binding (tested: 20 µg/ml) | no binding (tested: 20 µg/ml) | – | – | ~10 nM | – | – | – | – | ~8 nM
